Tested on: dCas9 (EnGen Spy dCas9, SNAP-tag) (Streptococcus pyogenes)
Assay: single-molecule fluorescence co-localization
Conditions: NEBuffer r3.1 adjusted to 1 mM MgCl2; single-molecule: 17 nM YOYO-1, 1 ng DNA, about 1 nM dCas9-RNA, 15 min at 37 C; EMSA: 1 mM DTT, 1% agarose 1x TAE gel

Substance | binding signal (% co-localization)
AAV2-ITR crRNA:tracrRNA-ATTO550 guide + pAAV-U6-sgRNA-CMV-GFP plasmid (positive) | 51
AAV2-ITR crRNA:tracrRNA-ATTO550 guide + plasmid lacking the target site (negative) | 23
